For one molecule, Ki results are on record in article PMC6943441, “The Meta-Position of Phe^4 in Leu-Enkephalin Regulates Potency, Selectivity, Functional Activity, and Signaling Bias at the Delta and Mu Opioid Receptors” (Molecules, 2019).

In the assay the target is mu opioid receptor (Homo sapiens), P35372. Put plainly: competition. The following applies: modification not given.
Sequence of mu opioid receptor (Homo sapiens), P35372 (P35372 whole entry): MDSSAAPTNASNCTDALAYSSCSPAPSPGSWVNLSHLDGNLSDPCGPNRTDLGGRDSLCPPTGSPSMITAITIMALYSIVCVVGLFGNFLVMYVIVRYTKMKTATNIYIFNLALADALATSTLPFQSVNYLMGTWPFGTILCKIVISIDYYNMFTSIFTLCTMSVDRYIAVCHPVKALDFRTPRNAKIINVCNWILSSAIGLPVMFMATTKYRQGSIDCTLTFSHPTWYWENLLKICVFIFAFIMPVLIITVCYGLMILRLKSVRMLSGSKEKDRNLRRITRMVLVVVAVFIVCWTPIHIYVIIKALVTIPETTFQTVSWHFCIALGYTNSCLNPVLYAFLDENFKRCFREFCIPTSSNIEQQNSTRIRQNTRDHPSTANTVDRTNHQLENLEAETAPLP

Broadly, the Ki is a measure of affinity in units of concentration, obtained from inhibition or displacement. Low readings indicate a stronger hold on the target, high ones a looser hold on the target. Turning to YAGFL [DADLE], the Ki came to 1.58 nM.
